Assay results: patent US20240228660A1 (IP2IPO INNOVATIONS, published 2024)
Like-named read-outs stand apart in the source and are kept apart here.

How the values were obtained:
Test in all cases: SPR, Biacore T200, antibody captured on Protein A, full-length VWF as analyte, single-cycle kinetics
[1] = biological target: T1, human full-length VWF (human, UniProt P04275 764-2813)
[2] = biological target: T1, human full-length VWF; remark: listed apart in the source
Protocol: Antibodies were captured on Protein A sensor chip. The system was purged using running buffer (10 mM HEPES pH 7.4, 300 mM NaCl, 3 mM EDTA, 0.05% P20) and a series S Protein A chip was docked in the Biacore T200. The surface was conditioned with 10 mM glycine-HCl pH 1.5 regeneration solution (3 injections). Each antibody was diluted to ˜0.8 μg/ml in running buffer to capture ˜350 RU on flow cells 2, 3 and 4 (flow cell 1 used as in-line reference cell). Single-cycle kinetic analysis of human full-length VWF binding to antibodies was performed using the following parameters:

[3] = biological target: T1, human full-length VWF; remark: listed apart in the source

Binder | Kd [1] | koff [1] | kon [1] | Kd [2] | also measured
3-H9_VH-par_VL-par (antibody, human IgG1, kappa, also called 3-H9_parental (hIgG1)) heavy chain: not shown light chain: AIKMTQTPSSVSVAVGGTVTINCQSSQSVYSNNLLSWYQQKPGQPPKLLIYDASTLESGVPSRFKGSGSGTQFTLTISGVQCEDAATYYCQGSYYSSGWYNTFGGGTEVVVETVAAPSVFIFPPSDEQLKSGTASVVCLLNNFYPREAKVQWKVDNALQSGNSQESVTEQDSKDSTYSLSSTLTLSKADYEKHKVYACEVTHQGLSSPVTKSFNRGEC | 43.4 pM |  |  |  | 
1-D5_VH-par_L1 (antibody, human IgG1, kappa, V domains shown, also called 1-D5_L1 (hIgG1K)) VH: QQQLVESGGRLVTPGTPLTLTCAVSGFSLNNYIMGWVRQAPGKGLEYIGIISTGGSTYYASWAKGRFTISRTSTTMDLKMTSLTTEDTATYFCARGGSSAGAGFNIWGPGTLVTVSS VL: DIQMTQSPSSLSASVGDRVTITCQASQSINSGLAWYQQKPGKAPKRLIYKASTLASGVPSRFSGSGSGTDFTLTISSLQPEDFATYYCQSYHYISANGATFGGGTKVEIKT | 82.4 pM | 7.91e-06 s⁻¹ | 96000 M⁻¹ s⁻¹ |  | 
1-D5_VH-par_L0 (antibody, human IgG1, kappa, V domains shown, also called 1-D5_L0 (hIgG1K)) VH: QQQLVESGGRLVTPGTPLTLTCAVSGFSLNNYIMGWVRQAPGKGLEYIGIISTGGSTYYASWAKGRFTISRTSTTMDLKMTSLTTEDTATYFCARGGSSAGAGFNIWGPGTLVTVSS VL: DIQMTQSPSSLSASVGDRVTITCQASQSINSGLAWYQQKPGKAPKLLIYKASTLASGVPSRFSGSGSGTDFTLTISSLQPEDFATYYCQSYHYISANGATFGGGTKVEIKT | 50 pM | 6.59e-06 s⁻¹ | 132000 M⁻¹ s⁻¹ |  | 
3-H9_H2_VL-par (antibody, human IgG1, kappa, V domains shown, also called 3-H9_H2 (hIgG1)) VH: QQLVESGGGVVQPGRSLRLSCAASGFSLSNYDMSWVRQAPGKGLEWIGSIHAIGITYYANWAEGRFTISRDKNTVYLQMNSLRAEDTATYFCARGLVDLNMWGQGTLVTVSS VL: AIKMTQTPSSVSVAVGGTVTINCQSSQSVYSNNLLSWYQQKPGQPPKLLIYDASTLESGVPSRFKGSGSGTQFTLTISGVQCEDAATYYCQGSYYSSGWYNTFGGGTEVVVET |  |  |  | 12.4 pM | koff [2]: 1.14e-06 s⁻¹; kon [2]: 92000 M⁻¹ s⁻¹
3-H9_H1_VL-par (antibody, human IgG1, kappa, V domains shown, also called 3-H9_H1 (hIgG1)) VH: not shown VL: AIKMTQTPSSVSVAVGGTVTINCQSSQSVYSNNLLSWYQQKPGQPPKLLIYDASTLESGVPSRFKGSGSGTQFTLTISGVQCEDAATYYCQGSYYSSGWYNTFGGGTEVVVET |  |  |  | 3.13 pM | koff [2]: 7.18e-08 s⁻¹; kon [2]: 22900 M⁻¹ s⁻¹
3-H9_H0_VL-par (antibody, human IgG1, kappa, V domains shown, also called 3-H9_H0 (hIgG1)) VH: QVQLVESGGGVVQPGRSLRLSCAASGFTFSNYDMSWVRQAPGKGLEWVASIHAIGITYYANWAEGRFTISRDNSKNTLYLQMNSLRAEDTAVYYCARGLVDLNMWGQGTLVTVSS VL: AIKMTQTPSSVSVAVGGTVTINCQSSQSVYSNNLLSWYQQKPGQPPKLLIYDASTLESGVPSRFKGSGSGTQFTLTISGVQCEDAATYYCQGSYYSSGWYNTFGGGTEVVVET |  |  |  | 4.09 pM | koff [2]: 3.59e-07 s⁻¹; kon [2]: 87700 M⁻¹ s⁻¹
1-G5_VH-par_L1 (antibody, human IgG1, kappa, also called 1-G5_L1 (hIgG1K)) heavy chain: not shown light chain: DPQMTQSPSSLSASVGDRVTITCQASQSVYNNNYLSWYQQKPGKAPKLLIYDASTLASGVPSRFSGSGSGTDFTLTISSLQPEDFATYYCQGSYYSGGWDTAFGGGTKVEIKTVAAPSVFIFPPSDEQLKSGTASVVCLLNNFYPREAKVQWKVDNALQSGNSQESVTEQDSKDSTYSLSSTLTLSKADYEKHKVYACEVTHQGLSSPVTKSFNRGEC |  |  |  | 12 pM | koff [2]: 1.28e-06 s⁻¹; kon [2]: 107000 M⁻¹ s⁻¹
3-H9_VH-par_L0 (antibody, human IgG1, kappa, V domains shown, also called 3-H9_L0 (hIgG1K)) VH: SQSLEESGGRLVTPGTPLTLTCSVSGFSLSNYDMSWVRQAPGKGLEWIGSIHAIGITYYANWAEGRFTISKTSTTVDLKMTSLTTEDTATYFCARGLVDLNMWGPGTLVTVSS VL: DIQMTQSPSSLSASVGDRVTITCQSSQSVYSNNLLSWYQQKPGKAPKLLIYDASTLESGVPSRFSGSGSGTDFTLTISSLQPEDFATYYCQGSYYSSGWYNTFGGGTKVEIKT |  |  |  | 111 pM | koff [2]: 2.12e-05 s⁻¹; kon [2]: 192000 M⁻¹ s⁻¹
4-H3_H1_VL-par (antibody, human IgG1, kappa, also called 4-H3_H1 (hIgG1)) heavy chain: not shown light chain: AYDMTQTPPSLSASVGETVRIRCLASEDIASGISWYQQKPGKPPTLLIYGASNLESGVPPRFSGSGSGTDYTLTIGGVQAEDAATYYCLGGYSFSSNGLTFGAGTKVEIKTVAAPSVFIFPPSDEQLKSGTASVVCLLNNFYPREAKVQWKVDNALQSGNSQESVTEQDSKDSTYSLSSTLTLSKADYEKHKVYACEVTHQGLSSPVTKSFNRGEC | 6.64 pM | 1.87e-07 s⁻¹ | 28200 M⁻¹ s⁻¹ |  | 
4-H3_H2_VL-par (antibody, human IgG1, kappa, also called 4-H3_H2 (hIgG1)) heavy chain: not shown light chain: AYDMTQTPPSLSASVGETVRIRCLASEDIASGISWYQQKPGKPPTLLIYGASNLESGVPPRFSGSGSGTDYTLTIGGVQAEDAATYYCLGGYSFSSNGLTFGAGTKVEIKTVAAPSVFIFPPSDEQLKSGTASVVCLLNNFYPREAKVQWKVDNALQSGNSQESVTEQDSKDSTYSLSSTLTLSKADYEKHKVYACEVTHQGLSSPVTKSFNRGEC | 19.4 pM | 1.75e-06 s⁻¹ | 90000 M⁻¹ s⁻¹ |  | 
4-H3_H5_VL-par (antibody, human IgG1, kappa, also called 4-H3_H5 (hIgG1)) heavy chain: not shown light chain: AYDMTQTPPSLSASVGETVRIRCLASEDIASGISWYQQKPGKPPTLLIYGASNLESGVPPRFSGSGSGTDYTLTIGGVQAEDAATYYCLGGYSFSSNGLTFGAGTKVEIKTVAAPSVFIFPPSDEQLKSGTASVVCLLNNFYPREAKVQWKVDNALQSGNSQESVTEQDSKDSTYSLSSTLTLSKADYEKHKVYACEVTHQGLSSPVTKSFNRGEC |  |  |  |  | Kd [3]: 0.0161 nM; koff [3]: 4.34e-07 s⁻¹; kon [3]: 26900 M⁻¹ s⁻¹
4-H3_H0_VL-par (antibody, human IgG1, kappa, V domains shown, also called 4-H3_H0 (hIgG1)) VH: QVQLVESGGGVVQPGRSLRLSCAASGFTFSSNAMNWVRQAPGKGLEWVAGIYGHDTSYYAAWAKGRFTISRDNSKNTLYLQMNSLRAEDTAVYYCARGFIYFDIWGQGTLVTVSS VL: AYDMTQTPPSLSASVGETVRIRCLASEDIASGISWYQQKPGKPPTLLIYGASNLESGVPPRFSGSGSGTDYTLTIGGVQAEDAATYYCLGGYSFSSNGLTFGAGTKVEIKT | 13.1 pM | 2.89e-07 s⁻¹ | 22100 M⁻¹ s⁻¹ |  | 
4-H3_H3_VL-par (antibody, human IgG1, kappa, V domains shown, also called 4-H3_H3 (hIgG1)) VH: QVQLVESGGGVVQPGRSLRLSCAASGIDLTSNAMNWVRQAPGKGLEWIGGIYGHDTSYYAAWAKGRFTISRDNSKNTVYLQMNSLRAEDTAVYYCARGFIYFDIWGQGTLVTVSS VL: AYDMTQTPPSLSASVGETVRIRCLASEDIASGISWYQQKPGKPPTLLIYGASNLESGVPPRFSGSGSGTDYTLTIGGVQAEDAATYYCLGGYSFSSNGLTFGAGTKVEIKT | 29.4 pM | 1.59e-06 s⁻¹ | 54200 M⁻¹ s⁻¹ |  | 
1-A2_H1_L1 (antibody, human IgG1, kappa, V domains shown, humanised, human IgG1 kappa) VH: QVQLVESGGGVVQPGRSLRLSCAASGIDLTSNAMNWVRQAPGKGLEWVAGIYGHDTSYYAAWAKGRFTISRDNSKNTLYLQMNSLRAEDTAVYYCARGFIYFDIWGQGTLVTVSS VL: DIQMTQSPSSLSASVGDRVTITCLASEDIYSGISWYQQKPGKAPKLLIYGASNLESGVPSRFSGSGSGTDYTLTISSLQPEDFATYYCLGGHSHSTTDLTFGGGTKVEIKT |  |  |  |  | Kd [3]: 0.00589 nM; koff [3]: 1.4e-07 s⁻¹; kon [3]: 23800 M⁻¹ s⁻¹
1-D5_VH-par_VL-par (antibody, human IgG1, kappa, also called 1-D5_parental (hIgG1)) heavy chain: not shown light chain: DIVMTQTPSSVSAAVGDTVTIQCQASQSINSGLAWYQQKPGQPPKRLIYKASTLASGVPSRFRGSGSGTDFTLTISDLECADAATYYCQSYHYISANGATFGGGTEVVVETVAAPSVFIFPPSDEQLKSGTASVVCLLNNFYPREAKVQWKVDNALQSGNSQESVTEQDSKDSTYSLSSTLTLSKADYEKHKVYACEVTHQGLSSPVTKSFNRGEC | 22.3 pM |  |  |  | 
1-G5_VH-par_VL-par (antibody, human IgG1, kappa, also called 1-G5_parental (hIgG1)) heavy chain: not shown light chain: DPVMTQTASSVSAAVGGTVTINCQASQSVYNNNYLSWYQQKPGQPPKLLIYDASTLASGVPSRFSGNGSGTQFTLTISGVQCDDAATYYCQGSYYSGGWDTAFGGGTKVVVKTVAAPSVFIFPPSDEQLKSGTASVVCLLNNFYPREAKVQWKVDNALQSGNSQESVTEQDSKDSTYSLSSTLTLSKADYEKHKVYACEVTHQGLSSPVTKSFNRGEC |  |  |  | 0.475 pM | 
1-D5_H2_VL-par (antibody, human IgG1, kappa, V domains shown, also called 1-D5_H2 (hIgG1)) VH: QQQLVESGGGVVQPGRSLRLSCAASGFSLNNYIMGWVRQAPGKGLEYIGIISTGGSTYYASWAKGRFTISRDSNTMYLQMNSLRAEDTATYFCARGGSSAGAGFNIWGQGTLVTVSS VL: DIVMTQTPSSVSAAVGDTVTIQCQASQSINSGLAWYQQKPGQPPKRLIYKASTLASGVPSRFRGSGSGTDFTLTISDLECADAATYYCQSYHYISANGATFGGGTEVVVET | 31.2 pM | 4.2e-06 s⁻¹ | 135000 M⁻¹ s⁻¹ |  | 
1-D5_H1_VL-par (antibody, human IgG1, kappa, V domains shown, also called 1-D5_H1 (hIgG1)) VH: QVQLVESGGGVVQPGRSLRLSCAASGFSLNNYIMGWVRQAPGKGLEWVAIISTGGSTYYASWAKGRFTISRDNSKNTLYLQMNSLRAEDTAVYYCARGGSSAGAGFNIWGQGTLVTVSS VL: DIVMTQTPSSVSAAVGDTVTIQCQASQSINSGLAWYQQKPGQPPKRLIYKASTLASGVPSRFRGSGSGTDFTLTISDLECADAATYYCQSYHYISANGATFGGGTEVVVET | 0.304 pM | 2.37e-08 s⁻¹ | 78000 M⁻¹ s⁻¹ |  | 
1-D5_H0_VL-par (antibody, human IgG1, kappa, V domains shown, also called 1-D5_H0 (hIgG1)) VH: QVQLVESGGGVVQPGRSLRLSCAASGFTFSNYIMGWVRQAPGKGLEWVAIISTGGSTYYASWAKGRFTISRDNSKNTLYLQMNSLRAEDTAVYYCARGGSSAGAGFNIWGQGTLVTVSS VL: DIVMTQTPSSVSAAVGDTVTIQCQASQSINSGLAWYQQKPGQPPKRLIYKASTLASGVPSRFRGSGSGTDFTLTISDLECADAATYYCQSYHYISANGATFGGGTEVVVET | 0.031 pM | 2.38e-09 s⁻¹ | 77000 M⁻¹ s⁻¹ |  | 
